The record followed here is article PMC11165011, “Proteinase 3 depletion attenuates leukemia by promoting myeloid differentiation” (Cell Death and Differentiation, 2024).

B2: PRTN3 recombinant protein (enzyme, human, UniProt P24158 28-248, looked up)
chain: IVGGHEAQPHSRPYMASLQMRGNPGSHFCGGTLIHPSFVLTAAHCLRDIPQRLVNVVLGAHNVRTQEPTQQHFSVAQVFLNNYDAENKLNDVLLIQLSSPANLSASVATVQLPQQDQPVPHGTQCLAMGWGRVGAHDPPAQVLQELNVTVVTFFCRPHNICTFVPRRKAGICFGDSGGPLICDGIIQGIDSFVIWGCATRLFPDFFTRVALYVDWIRSTLR
notes: Proteinase 3 (PRTN3), human, bought recombinant protein; see the vendor's sheet for HY-P70509; also called hPRTN3; hPR3; source: bought: ACE (HY-P70509)

Assay [1] has as its target B2. Kind of assay: SPR; Biacore K8, CM5 chip; 'target proteins' at 20 μg/mL in PBS pH 7.2 immobilised by amine coupling at 25 °C (which partner is not stated); 300 s dissociation; steady-state analysis. The note with it: both partners purified. A general note: Surface plasmon resonance follows binding to a sensor surface in real time, without labels.
In assay [2] the target is T1, STAT3 recombinant protein (whole STAT3) (human, UniProt P40763 1-770).
T1 construct: STAT3, human, bought recombinant protein with the N-terminal domain; In the cleavage test STAT3 ran as a ~120 kDa monomer, which may mean a carrier tag (surmise); also called recombinant human STAT3; source: bought: one of Abcam (Ab43618), ACRO (ST3-H5149), ACE (HY-P70574)
Described as above. The note with it: both partners purified.

What is called Kd is a measure of binding affinity in units of concentration.

B1: N-terminal domain of STAT3, recombinant (domain or fragment)
chain: MAQWNQLQQLDTRYLEQLHQLYSDSFPMELRQFLAPWIESQDWAYAASKESHATLVFHNLLGEIDQQYSRFLQESNVLYQHNLRRIKQFLQSRYLEKPMEIARIVARCLWEESRLLQTAATAAQQGGQAN
modifications: Limits of the purchased recombinant N-terminal domain are not given; 1-130 is taken from the paper's own shortest Flag-STAT3 truncation (1-130), which matches the usual N-terminal domain boundary. …
With B1, the Kd in assay [1] is 6.91 µM. Consider B2, for which the Kd in assay [2] was determined as 224 nM.
